Results reported in patent US20250115886A1 (University of Pennsylvania, published 2025).

B2: Cdc24-mScarlet-TsCC(B) (other, not shown: large carriers)
chain: MAIQTRFASGTSLSDLKPKPSATSISIPMQNVMNKPVTEQDSLFHICANIRKRLEVLPQLKPFLQLAYQSSEVLSERQSLLLSQKQHQELLKSNGANRDSSDLAPTLRSSSISTATSLMSMEGISYTNSNPSATPNMEDTLLTFSMGILPITMDCDPVTQLSQLFQQGAPLCILFNSVKPQFKLPVIASDDLKVCKKSIYDFILGCKKHFAFNDEELFTISDVFANSTSQLVKVLEVVETLMNSSPTIFPSKSKTQQIMNAENQHRHQPQQSSKKHNEYVKIIKEFVATERKYVHDLEILDKYRQQLLDSNLITSEELYMLFPNLGDAIDFQRRFLISLEINALVEPSKQRIGALFMHSKHFFKLYEPWSIGQNAAIEFLSSTLHKMRVDESQRFIINNKLELQSFLYKPVQRLCRYPLLVKELLAESSDDNNTKELEAALDISKNIARSINENQRRTENHQVVKKLYGRVVNWKGYRISKFGELLYFDKVFISTTNSSSEPEREFEVYLFEKIIILFSEVVTKKSASSLILKKKSSTSASISASNITDNNGSPHHSYHKRHSNSSSSNNIHLSSSSAAAIIHSSTNSSDNNSNNSSSSSLFKLSANEPKLDLRGRIMIMNLNQIIPQNNRSLNITWESIKEQGNFLLKFKNEETRDNWSSCLQQLIHDLKNEQFKARHHSSTSTTSSTAKSSSMMSPTTTMNTPNHHNSRQTHDSMASFSSSHMKRVSDVLPKRRTTSSSFESEIKSISENFKNSIPESSILFRISYNNNSNNTSSSEIFTLLVEKVWNFDDLIMAINSKISNTHNNNISPITKIKYQDEDGDFVVLGSDEDWNVAKEMLAENNEKFLNIRLYVEVAEEVKAVSAALSERITQLATELNDKAVRAAERRVAEVTRAAGEQTAQAERELADAAQTVDDLEEKLVELQDRYDSLTLALESERSLRQQHDVEMAQLKERLAAAEENTRQEEERYQEQKTVLQDALNAEQAQHKNTREDLQKRLEQISVEANARTEELKSERDKVNTFLTRLESQENALASEEQQHLATRETLQQRLEQAIADTQARAGEIALERDRVSSLTARLESQEKASSEQLVRMGSEIASLTERCTQLENQRDDARLETMGEKETVAALRGEAEALKRQNQSLMAALSGNKQTGGQNA

Experiments:
RGG-SZ2 = target: T1, RGG-SZ2 (Caenorhabditis elegans); assay: fluorescence microscopy of purified proteins, 4 µM
T1 construct: Purified from E. coli; also called single RGG domain tagged with SZ2
T1 chain: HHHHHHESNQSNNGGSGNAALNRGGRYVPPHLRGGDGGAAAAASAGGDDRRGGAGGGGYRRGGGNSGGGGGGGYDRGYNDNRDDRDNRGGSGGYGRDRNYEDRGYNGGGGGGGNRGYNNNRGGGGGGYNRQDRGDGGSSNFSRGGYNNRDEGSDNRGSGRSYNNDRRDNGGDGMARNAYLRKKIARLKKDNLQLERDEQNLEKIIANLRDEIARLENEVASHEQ

[1] = target: TsCC(A)-(RGG)3-GFP scaffold (Caenorhabditis elegans); assay: cell-based or functional assay
Cdc24-mScarlet-TsCC(B) = target: B2; assay: fluorescence microscopy of client localization in yeast

B1: SZ1-RGG (other)
chain: HHHHHHMNLVAQLENEVASLENENETLKKKNLHKKDLIAYLEKEIANLRKKIEEESNQSNNGGSGNAALNRGGRYVPPHLRGGDGGAAAAASAGGDDRRGGAGGGGYRRGGGNSGGGGGGGYDRGYNDNRDDRDNRGGSGGYGRDRNYEDRGYNGGGGGGGNRGYNNNRGGGGGGYNRQDRGDGGSSNFSRGGYNNRDEGSDNRGSGRSYNNDRRDNGGDG
notes: Purified from E. coli; also called single RGG domain tagged with SZ1
Q: Does B1 bind (RGG-SZ2)?
A: Result: binds

Q: For B2, which “fold decrease in rate of cell proliferation in liquid culture” value [1] is on record?
A: Its value is about 12 fold.

B3: (RGG)3 condensates that lack the interaction tag (other)
chain: ESNQSNNGGSGNAALNRGGRYVPPHLRGGDGGAAAAASAGGDDRRGGAGGGGYRRGGGNSGGGGGGGYDRGYNDNRDDRDNRGGSGGYGRDRNYEDRGYNGGGGGGGNRGYNNNRGGGGGGYNRQDRGDGGSSNFSRGGYNNRDEGSDNRGSGRSYNNDRRDNGGDGESNQSNNGGSGNAALNRGGRYVPPHLRGGDGGAAAAASAGGDDRRGGAGGGGYRRGGGNSGGGGGGGYDRGYNDNRDDRDNRGGSGGYGRDRNYEDRGYNGGGGGGGNRGYNNNRGGGGGGYNRQDRGDGGSSNFSRGGYNNRDEGSDNRGSGRSYNNDRRDNGGDGESNQSNNGGSGNAALNRGGRYVPPHLRGGDGGAAAAASAGGDDRRGGAGGGGYRRGGGNSGGGGGGGYDRGYNDNRDDRDNRGGSGGYGRDRNYEDRGYNGGGGGGGNRGYNNNRGGGGGGYNRQDRGDGGSSNFSRGGYNNRDEGSDNRGSGRSYNNDRRDNGGDG
notes: Control scaffold without coiled-coil tag; The other scaffolds carry GFP; also called control scaffolds that lack the cognate coiled-coil tag
Q: Does B3 bind (Cdc24-mScarlet-TsCC(B))?
A: Result: no binding
